T1: Hel308 Mbu(E284C/S615C)-bismaleimidePEG11 (Methanococcoides burtonii, UniProt Q12WZ6 SEQ:1-760, E284C/S615C)
T1 sequence: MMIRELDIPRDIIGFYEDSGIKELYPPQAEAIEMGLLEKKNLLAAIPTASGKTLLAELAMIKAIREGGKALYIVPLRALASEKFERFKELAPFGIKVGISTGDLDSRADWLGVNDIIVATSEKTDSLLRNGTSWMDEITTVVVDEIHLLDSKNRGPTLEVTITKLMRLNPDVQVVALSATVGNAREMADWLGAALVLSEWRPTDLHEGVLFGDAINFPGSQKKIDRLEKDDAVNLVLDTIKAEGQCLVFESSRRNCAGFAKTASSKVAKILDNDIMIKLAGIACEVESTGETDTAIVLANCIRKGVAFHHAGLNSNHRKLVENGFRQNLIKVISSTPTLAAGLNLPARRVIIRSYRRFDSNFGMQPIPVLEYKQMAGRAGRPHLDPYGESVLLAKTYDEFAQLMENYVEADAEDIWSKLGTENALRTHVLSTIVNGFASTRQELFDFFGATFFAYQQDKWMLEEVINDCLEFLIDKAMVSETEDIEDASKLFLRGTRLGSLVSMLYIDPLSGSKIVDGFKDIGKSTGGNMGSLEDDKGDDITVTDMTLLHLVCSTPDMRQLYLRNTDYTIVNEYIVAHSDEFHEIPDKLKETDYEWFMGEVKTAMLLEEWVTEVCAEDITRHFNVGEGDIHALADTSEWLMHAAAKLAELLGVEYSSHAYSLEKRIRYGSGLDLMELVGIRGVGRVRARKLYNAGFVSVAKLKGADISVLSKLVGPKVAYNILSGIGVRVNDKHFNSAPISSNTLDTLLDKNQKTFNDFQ

T2: Hel308 Mbu(E284C/S615C)-bismaleimidePEG3 (Methanococcoides burtonii, UniProt Q12WZ6 SEQ:1-760, E284C/S615C)
T2 sequence: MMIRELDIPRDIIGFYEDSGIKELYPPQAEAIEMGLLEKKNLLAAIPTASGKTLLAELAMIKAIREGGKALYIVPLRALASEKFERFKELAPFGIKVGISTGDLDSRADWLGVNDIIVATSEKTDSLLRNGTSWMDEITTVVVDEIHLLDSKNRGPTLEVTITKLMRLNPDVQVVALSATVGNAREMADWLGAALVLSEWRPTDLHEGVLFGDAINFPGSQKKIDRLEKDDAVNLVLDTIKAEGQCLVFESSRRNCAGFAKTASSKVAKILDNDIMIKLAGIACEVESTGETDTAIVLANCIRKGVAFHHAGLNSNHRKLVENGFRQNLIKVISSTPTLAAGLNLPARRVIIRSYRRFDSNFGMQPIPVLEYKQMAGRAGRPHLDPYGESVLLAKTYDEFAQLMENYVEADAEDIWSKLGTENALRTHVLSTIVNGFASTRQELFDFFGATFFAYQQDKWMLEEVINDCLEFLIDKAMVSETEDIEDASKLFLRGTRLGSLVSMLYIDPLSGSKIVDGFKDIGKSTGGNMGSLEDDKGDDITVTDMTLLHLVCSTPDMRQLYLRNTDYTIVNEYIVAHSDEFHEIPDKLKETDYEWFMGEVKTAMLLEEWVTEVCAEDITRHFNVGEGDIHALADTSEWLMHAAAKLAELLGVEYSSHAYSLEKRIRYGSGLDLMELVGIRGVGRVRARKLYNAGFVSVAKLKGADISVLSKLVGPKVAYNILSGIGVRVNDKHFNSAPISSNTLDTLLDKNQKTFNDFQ

B1: 80 bp blocker processivity substrate (dsDNA)
DNA 1: TCGCTGCTCCACAGGTCTCAGCTTGAGCAGCGAAAATAAGAACATTATGATCAGTAGGAGCACTACGACCTTTGTTCTGGTGCTCGTCCGGGCGCCCAAAGTGGAGCGAGTGCCCCC
DNA 2: GCACTCGCTCCACTTTGGGCGCCCGGACGAGCACCAGAACAAAGGTCGTAGTGCTCCTACTGATCATAATGTTCTTATTT
DNA 3: TCGCTGCTCAAGCTGAGACCTGTGGAGCAGCGA

How the values were obtained:
[1] = target: Heat treated Hel308 Mbu-E284Faz E284Faz (Methanococcoides burtonii) (UniProt Q12WZ6); settings: four nitroindoles between SEQ 155 and SEQ 154; nanopore; 500 nM, 960 mM KCl, 10 mM MgCl2, 1 mM ATP
[2] = target: Hel308 Mbu-E284Faz E284Faz (Methanococcoides burtonii) (UniProt Q12WZ6); settings: four nitroindoles between SEQ 155 and SEQ 154; nanopore; 100 nM, 960 mM KCl, 10 mM MgCl2, 1 mM ATP
[3] = target: T1, Hel308 …; test: fluorescence unwinding; increased processivity; 400 mM NaCl, 1 mM ATP, 10 mM MgCl2; settings: tags: C284 and C615 crosslinked by bismaleimidePEG11 (closed); 3' ssDNA overhang, 80 and 33 bp duplex sections
Text: (§1) The fluorescent probe is designed in such a way that its 5′ and 3′ ends are self-complementary and thus form a kinetically-stable hairpin once displaced, preventing the probe from re-annealing to the template strand (FIG. 3 section D). Upon formation of the hairpin product, the FAM is brought into the vicinity of the BHQ-1 and its fluorescence is quenched. A processive enzyme, capable of displacing the 80 mer “blocker” (SEQ ID NO: 111) and fluorescent (SEQ ID NO: 112, labelled with a carboxyfluorescein (FAM) at its 5′ end a black-hole quencher (BHQ-1) at its 3′ end) strands will therefore lead to a decrease in fluorescence over time. However, if the enzyme has a processivity of less than 80 nt it would be unable to displace the fluorescent strand (SEQ ID NO: 112, labelled with a carboxyfluorescein (FAM) at its 5′ end a black-hole quencher (BHQ-1) at its 3′ end) and, therefore, the “blocker” strand (SEQ ID NO: 111) would reanneal to the major bottom strand (FIG. 3 section E, SEQ ID NO: 110).

[4] = target: T2, Hel308 Mbu(E284C/S615C)-bismaleimidePEG3; test: as above; settings: tags: C284 and C615 crosslinked by bismaleimidePEG3 (closed); 3' ssDNA overhang, 80 and 33 bp duplex sections
Text: as §1

| Molecule | activity (% movements reaching polyT) [1] | activity (% movements reaching polyT) [2] | binding result [3] | binding result [4] |
| --- | --- | --- | --- | --- |
| 3.6 kb DNA | 71 | 28 |  |  |
| B1 |  |  | binds | binds |

— US20150191709, “MODIFIED HELICASES” (OXFORD NANOPORE TECHNOLOGIES LIMITED, published 2015)
